# Data as given in publication doi:10.1101/2023.03.30.534746.
# Tests used:
# [1] = biological target: IRE1α LD 352LNYL355-GSGS mutant (human) (UniProt O75460); assay: AUC
# [2] = biological target: IRE1α LD 312TLPL315-GSGS mutant (human) (UniProt O75460); assay: AUC
stoichiometry N [1],stoichiometry N [2],Substance
2,–,IRE1α LD 352LNYL355-GSGS mutant (from UniProt O75460 24-443) (domain or fragment)
–,2,IRE1α LD 312TLPL315-GSGS mutant (from UniProt O75460 24-443) (domain or fragment)
